Measurements: article PMC5440646 (2017)
Where no end group is shown, it is not given here. [ ]: non-standard residue; d: D form. The star is where a group is joined. Biotin = O=C1N[C@H]2[C@H](CS[C@H]2CCCCC(=O)*)N1; pY = N[C@@H](Cc1ccc(OP(=O)(O)O)cc1)C(=O)O

T1: GADS SH2 domain, His-tagged (UniProt O75791 58-149)
T1 chain: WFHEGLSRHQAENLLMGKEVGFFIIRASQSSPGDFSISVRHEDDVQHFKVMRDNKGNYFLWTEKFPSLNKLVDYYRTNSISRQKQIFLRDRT

T2: SLP-76 SH2 domain, His-tagged (UniProt Q13094 422-530)
T2 chain: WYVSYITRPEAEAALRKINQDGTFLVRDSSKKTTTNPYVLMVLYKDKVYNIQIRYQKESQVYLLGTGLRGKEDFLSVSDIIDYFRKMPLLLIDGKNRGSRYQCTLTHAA

T3: CD28 pYMN peptide (Homo sapiens, UniProt P10747)
T3 chain: LLHSD[pY]MNMTPRR

T4: CD6 long pY629 peptide (Homo sapiens, UniProt P30203, pY629)
T4 chain: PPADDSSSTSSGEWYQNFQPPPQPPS


How the values were obtained:
Assay in all cases: SPR
[1] = molecular target: T1, GADS SH2 domain, His-tagged
[2] = molecular target: T2, SLP-76 SH2 domain, His-tagged
CD28 pYMN peptide = molecular target: T3, CD28 pYMN peptide
CD6 long pY629 peptide = molecular target: T4, CD6 long pY629 peptide

| Binder | Kd [1] | Kd [2] | Kd (CD28 pYMN peptide) | Kd (CD6 long pY629 peptide) |
| --- | --- | --- | --- | --- |
| Biotin-STSSGEW[pY]QNFQPPPQPPSEEQFGCPGSPSPQPDSTDNDDYDDISAA [long CD6 peptide phosphorylated at Y629] | 1000 nM | – | – | – |
| GADS SH2 (protein) FPKWFHEGLSRHQAENLLMGKEVGFFIIRASQSSPGDFSISVRHEDDVQHFKVMRDNKGNYFLWTEKFPSLNKLVDYYRTNSISRQKQIFLRDRTRED | – | – | ~2500 nM | ~400 nM |

Second part, the binder after the results:

| Kd [1] | Kd [2] | Kd (CD28 pYMN peptide) | Kd (CD6 long pY629 peptide) | Binder |
| --- | --- | --- | --- | --- |
| – | 1000 nM | – | – | Biotin-STSSGEWYQNFQPPPQPPSEEQFGCPGSPSPQPDSTDNDD[pY]DDISAA [long CD6 peptide phosphorylated at Y662] |
| 1000 nM | 1000 nM | – | – | Biotin-STSSGEW[pY]QNFQPPPQPPSEEQFGCPGSPSPQPDSTDNDD[pY]DDISAA [long CD6 peptide phosphorylated at Y629 and Y662] |
